From patent US9289507B2, “Carriers for improved drug delivery” (Extend Biosciences, Inc., priority 2012, dated 2016)
Where two headings read alike, the source gives them in different places.

Key:
[1] = set-up: species or system Sprague Dawley rats; details: rat, in vivo, sc, 1 mg/kg
Procedure: Infliximab, sold as a lyophilized powder with the appropriate salts (Hannah Pharmaceuticals), was resuspended to a concentration of 10 mg/mL with water. The Vitamin D3-PEG-NHS carrier was resuspended at a concentration of 10 mg/mL in DMSO. The Vitamin D3-PEG-NHS carrier and the infliximab were then mixed at a molar ratio of 5:1 and 10:1 carrier to infliximab. […] By using an NHS version of the carrier, more than one carrier can be attached to a therapeutic protein and this can be experimentally controlled by altering the molar ratio of carrier to target therapeutic in the reaction. In this example, a target distribution of 2-4 carriers was set as a desired parameter.
The dose was 1 mg/kg in all test groups with three rats per group. Serum samples were collected pre-dosing and at various times from 5 min to 48 hrs post injection. Serum samples were then analyzed by ELISA using an ELISA kit specific for determining the levels of infliximab in serum (Promonitor™, Progenika™). Pharmacokinetic parameters were determined using WinNonLin.

[2] = FGF21 in its natural state; cited from earlier work
[3] = 1 mg/kg, cited from earlier work

## infliximab: Monoclonal antibody that binds tumor necrosis factor alpha (TNF-α) [reference compound]
[1]
  serum concentration at 24 hr: 2100 ng/mL
  serum concentration at 48 hr: 4800 ng/mL

B1: FGF21: Fibroblast growth factor 21 in its natural state (SEQ ID:2), literature values (protein, listed as Homo sapiens)
chain: HPIPDSSPLLQFGGQVRQRYLYTDDAQQTEAHLEIREDGTVGGAADQSPESLLQLKALKPGVIQILGVKTSRFLCQRPDGALYGSLHFDPEACSFRELLLEDGYNVYQSEAHGLPLHLPGNKSPHRDPAPRGPARFLPLPGLPPALPEPPGILAPQPPDVGSSDPLSMVGPSQGRSPSYAS
[2]
  half-life in serum: 1.1 h
[3]; intravenous route
  Cmax: 1890 nM
[3]; subcutaneous route
  Cmax: 73 nM
